Measured values published in US20120045785A1.

How the values were obtained:
[1] = target: HtubA/B dimer (hybrid bacterial-bovine tubulin heterodimer) (Prosthecobacter dejongeii); experiment: cell-based or functional assay
eukaryotic microtubules = experiment: cell-based or functional assay

Chain of HtubA/B dimer (hybrid bacterial-bovine tubulin heterodimer) (Prosthecobacter dejongeii) (chain, as listed by the source, chain 1 of 2): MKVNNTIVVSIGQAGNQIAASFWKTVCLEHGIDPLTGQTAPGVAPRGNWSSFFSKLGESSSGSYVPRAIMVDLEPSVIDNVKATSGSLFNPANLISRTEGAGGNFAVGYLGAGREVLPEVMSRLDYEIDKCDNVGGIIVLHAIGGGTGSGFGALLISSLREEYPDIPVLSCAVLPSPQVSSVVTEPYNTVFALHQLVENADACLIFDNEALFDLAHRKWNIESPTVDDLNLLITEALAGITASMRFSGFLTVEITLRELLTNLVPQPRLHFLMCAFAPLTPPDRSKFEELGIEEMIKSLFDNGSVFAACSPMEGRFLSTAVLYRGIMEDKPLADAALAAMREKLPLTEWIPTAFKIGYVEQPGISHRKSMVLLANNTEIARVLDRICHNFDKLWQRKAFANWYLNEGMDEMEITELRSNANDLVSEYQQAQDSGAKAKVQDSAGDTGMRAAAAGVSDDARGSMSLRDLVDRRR
Chain of HtubA/B dimer (hybrid bacterial-bovine tubulin heterodimer) (Prosthecobacter dejongeii) (chain, as listed by the source, chain 2 of 2): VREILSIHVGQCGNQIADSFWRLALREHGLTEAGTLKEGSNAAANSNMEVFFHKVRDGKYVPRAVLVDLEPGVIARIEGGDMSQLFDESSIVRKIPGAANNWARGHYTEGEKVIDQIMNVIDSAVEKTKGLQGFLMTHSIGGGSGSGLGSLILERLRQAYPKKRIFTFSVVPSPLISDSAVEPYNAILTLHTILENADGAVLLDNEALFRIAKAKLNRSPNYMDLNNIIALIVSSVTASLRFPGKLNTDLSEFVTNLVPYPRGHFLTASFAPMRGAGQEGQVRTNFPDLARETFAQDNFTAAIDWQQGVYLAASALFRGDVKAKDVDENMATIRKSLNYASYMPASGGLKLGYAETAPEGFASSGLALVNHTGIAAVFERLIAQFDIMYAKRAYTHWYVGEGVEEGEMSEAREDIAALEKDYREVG

## Eg5 (a kinesin-5) motor domain (enzyme)
[1]
  rate of ATP binding (MANT-ATP, stopped-flow): 265 s⁻¹
Eukaryotic microtubules
  rate of ATP binding (MANT-ATP, stopped-flow): 25 to 30 s⁻¹
